One substance from patent publication US20110212091 can be followed below.

The subject of series [1] is FGFR4 G388, V5-His tagged (FGFR4G388-V5-His).
Series [2] deals with FGFR4 R388, V5-His tagged (FGFR4R388-V5-His).

HA-tagged MT1-MMP: the MT1-MMP tyrosine phosphorylation entry in series [1] and in series [2] was “repeatedly detected” throughout.
